The target in assay [1] is T1, human PD-1-His (human, UniProt Q15116 25-167, limits assumed).
T1 construct: not shown: His tag
Nature of the assay: Octet, antibody on AHC biosensors, multiple concentrations of PD-1-His. (In general: Biolayer interferometry detects binding as a change in optical thickness at a sensor tip.)

Assay [2] addresses T1, human PD-1-His. Description: Octet (Example 7A, told again).
Assay [3] addresses T1, human PD-1-His. Description: Octet, antibody captured on anti-human Fc (AHC) biosensors, dipped into multiple concentrations of PD-1-His.
The target of assay [4] is T2, PD-1 (antigen of the Octet affinity measurements of Example 9 and of the affinities quoted afterwards) (UniProt Q15116 25-167, limits assumed).
T2 construct: most likely human PD-1-His
T2 sequence (Q15116 25-167 limits assumed): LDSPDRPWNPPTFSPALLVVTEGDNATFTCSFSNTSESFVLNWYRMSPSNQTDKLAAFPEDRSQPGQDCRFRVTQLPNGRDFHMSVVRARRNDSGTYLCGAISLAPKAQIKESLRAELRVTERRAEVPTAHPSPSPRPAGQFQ
Description: Octet affinity screen, bivalent IgG1 format.

Where a chain is given by its changes, count along the chain named. Names may count otherwise. Where only a bound is given, the exact number is not on record here.

T1 sequence (Q15116 25-167 limits assumed): as above

B1: XENP28519 (bivalent mAb based on humanized mAb A) (antibody, human IgG1, kappa, V domains shown)
VH: QVQLQESGPGLVKPSQTLSLTCTVSGHSITSDYAWNWIRQPPGKKLEWIGYISYSGYTTYNPSLKSRVTISRDTSKNQFSLKLSSVTAADTAVYFCARDLDYGPWFAYWGQGTLVTVSS
VL: DIQMTQSPSSLSASVGDRVTITCRASENIHNYLAWYQQKPGKSPKLLVYNVKTLADGVPSRFSGSGSGTDYTLTISSLQPEDFATYYCQHFWSSPWTFGGGTKVEIKR
notes: also called anti-PD-1 mAb XENP28519
Turning to B1, the binding result with human PD-1-His [1] is on record as “binds”.

B2: XENP28536 (bivalent mAb based on humanized mAb C, mAb C[PD-1]_H1L1) (antibody, human IgG1, V domains shown)
VH: EVQLVESGGGLVQPGGSLRLSCAASGFTFSSFGMHWVRQAPGKGLEWVSYISSGSSIIYYADSVKGRFTISRDNAKNSLYLQMNSLRAEDTAVYYCARGGRLVWSPDYWGQGTLVTVSS
VL: DIVMTQSPDSLAVSLGERATINCKSSQSLLNSGNQKNYLTWYQQKPGQPPKLLIYWASTRESGVPDRFTGSGSGTDFTLTISSLQAEDVAVYYCQNDYSYPFTFGSGTKLEIK
notes: also called WT
Consider B2, for which the binding result in the assay with human PD-1-His [2] is reported as “binds”.

B3: XENP28538 (humanized variant of anti-PD-1 mAb C, bivalent human IgG1) (antibody, V domains shown)
VH: B2 VH with Q13K, S49G, S63P, A75S, S78T, R87K, A88T
VL: DIVMTQSPDSLAVSLGERATINCKSSQSLLNSGNQKNYLTWYQQKPGQPPKLLIYWASTRESGVPDRFTGSGSGTDFTLTISSLQAEDVAVYYCQNDYSYPFTFGSGTKLEIKR
notes: Human IgG1 with E233P/L234V/L235A/G236del/S267K
In the case of B3, in the assay with human PD-1-His [3], the binding result is on record as “no binding”.

B4: mAb C[PD-1]_H1_L1.1 (bivalent IgG1 format with E233P/L234V/L235A/G236_/S267K ablation variants) (antibody, V domains shown)
VH: B2 VH
VL: B3 VL with N31H
notes: Human IgG1 with ablation variants; copies: 2 + 2
In the case of B4, the “fold improved affinity over WT” value in assay [4] turned out to be 2 fold.

B5: XENP28539 (humanized variant of anti-PD-1 mAb C, bivalent human IgG1) (antibody, V domains shown)
VH: B2 VH with Q13K, S49G, S63P, A75S, S78T, R87K, A88T
VL: DIVMTQSPLSLPVTPGEPASISCRSSQSLLNSGNQKNYLTWYLQKPGQPPQLLIYWASTRESGVPDRFTGSGSGTDFTLKISRVEAEDVGVYYCQNDYSYPFTFGSGTKLEIKR
notes: as for B3
Consider B5, for which the binding result with human PD-1-His [3] was “no binding”.

B6: mab_C[PD-1]_H1_L1.3 (bivalent IgG1 format with E233P/L234V/L235A/G236_/S267K ablation variants) (antibody, V domains shown)
VH: B2 VH
VL: B3 VL with N31S
notes: as for B4
As for B6, the “fold improved affinity over WT” value in assay [4] was greater than 2 fold.
